Data: the supplement of paper PMC10567573

B1: ETS2 (parent)
chain: TSGKRYVYRFVCDLQNLLGFTPEE

Variants of: B1
Assay: protein stability index of a GFP-peptide fusion (GPS, HEK-293T) (PSI 1-6); higher = more stable
Settings: c terminus: a fixed tail appended
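Further: lentivirally expressed fusions sorted by FACS into six bins by GFP to DsRed ratio, PSI derived from sequencing read proportions per bin multiplied by bin number.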

Protein stability index: each site, then its substitutions
R9: H 1.65, K 1.85, S 1.92, V 2.4, M 3, P 2.48, W 1.96, T 2.15, G 1.58, E 1.78, N 1.77, D 1.66, Y 1.79, C 1.53, I 1.68, F 1.06, A 1.45, L 1.48, Q 1.72
L14: G 2.34, M 2.14, F 2.08, K 3.2, A 3.91, I 2.41, N 2.23, C 2.07, H 2.34, W 2.53, Q 2.81, V 2.39, S 2.77, Y 2.56, T 2.69, D 3.01, E 3.19, R 2.35, P 3.53
R5: P 1.52, Y 2.88, E 1.69, S 2.87, A 2.44, D 2.05, N 3.24, K 3.18, V 1.72, I 3.19, F 3.19, G 3.53
Q15: T 1.91, H 1.96, P 2.7, E 1.85, D 1.61, V 2.47, L 2.44, C 2.23, A 2.23, R 3, G 3.45, W 1.88, Y 2.23, I 2.43, N 2.13, K 2.03, F 2.09, S 2.07
Y6: N 1.52, S 2.26, C 2.26, H 2.41, A 1.43, V 2.61, I 4.21, T 2.3, Q 1.86, L 3.25, G 1.35, R 2.31, E 1.4, P 2.59, F 2.91, D 1.52
K4: M 1.74, W 2.72, A 2.29, Y 3.33, P 1.83, T 2.17, D 2.24, L 2.8, N 2.34, G 2.54, E 1.72, C 2.58, R 3.33, Q 1.7, V 2, H 2.06, I 1.36, F 2.34
D13: T 2.99, G 2.41, I 2.81, L 2.22, H 1.79, W 2.98, N 1.77, R 2.11, V 2.33, C 2.22, S 1.57, E 2.11, K 2.48, Q 2.46, A 2.67, Y 2.37, F 2.96, P 3.25
N16: L 1.52, D 2.17, W 2.05, M 1.53, H 2.49, C 1.7, K 2.02, I 2.03, Y 1.75, P 2.56, Q 2.04, F 2.16, E 1.74, G 2.38, S 2.46, V 3.2, T 1.97, A 2.13
C12: E 1.76, K 2.98, W 2.21, F 1.68, H 2.31, L 2.03, G 2.04, M 1.25, Q 2.57, N 3.4, V 2.39, R 2.58, T 2.17, A 1.92, I 1.96, D 1.72, Y 1.77, S 2.9, P 2.05
L17: T 2.98, A 2.08, C 2.57, D 1.92, R 2.79, G 2.31, H 2.61, K 2.43, M 1.47, F 2.73, Q 1.71, I 2.31, P 3.57, E 3.13, W 2.21, N 2.27, S 2.12, V 1.91, Y 2.37
Y8: L 1.75, F 1.55, V 2.5, K 2.11, W 2.01, D 2.78, A 2.12, I 2.56, E 2.67, H 2.15, N 3.26, M 2.93, G 2.15, Q 2.02, P 2.28, R 2.23, C 1.35, S 2.23, T 2.29
G3: N 2.77, S 2.36, W 1.65, Y 2.09, V 1.86, Q 2.31, L 1.65, R 2, T 1.86, M 2.08, P 1.5
T21: A 2.11, L 2.1, K 2.25, V 1.62, C 1.32, R 1.67, W 2.15, D 1.6, F 2.02, E 2.32, P 2.44, N 2.38, S 2.13, G 1.95, H 2.75, Q 1.7, I 1.76, M 2.05, Y 1.77
F10: A 2.02, H 2.04, C 2.06, Q 2.7, M 2.06, W 2.42, E 2.75, T 2.26, D 3.9, Y 3.17, L 1.8, S 3.37, P 2.59, K 3.16, R 3.5, G 2.57, I 2.02, N 3.32
L18: A 1.99, H 1.32, R 2.09, F 1.84, K 1.95, P 1.68, N 2.29, I 1.2, W 2.1, Q 2.88, M 2.07, Y 1.74, E 2.04, V 2.91, C 1.39, S 1.87, T 1.91, G 1.92
P22: G 1.63, C 1.4, E 1.46, F 1.89, H 2.07, A 1.65
V11: T 2.36, R 1.57, N 2.67, W 2.14, L 2.82, A 3.07, I 2.64, M 2.85, Y 2.14, E 2.61, D 2.59, F 2.56, S 2.02, C 3.14, K 2.15, H 2.07, Q 1.94, P 2.85
G19: W 2.65, Q 2.65, I 2.39, H 1.34, T 1.79, C 1.32, E 1.31, Y 2.52, A 3.01, V 2.01, P 2.07, L 1.96, D 1.98, K 1.36, S 2.13, M 1.82, F 1.82
V7: T 2.57, L 2.22, W 2.61, S 2.83, P 1.84, Q 1.98, R 1.03, N 1.25, A 1.29, F 2.25, K 2.3, D 1.46, H 2.04, E 1.3, M 3.69
F20: L 2.17, N 3.28, Q 2.35, V 1.93, M 1.62, P 3.26, A 2.59, Y 2.77, R 1.87, W 3.05, E 2, I 1.61, H 1.97, K 1.77, C 1.93, T 1.88, D 1.48
